Experimental data taken from PMC6771595.

Columns and labels:
[1] = biological target: PptA, phosin (polyP-targeting protein) from Streptomyces chartreusis (Streptomyces chartreusis); test: SEC
[2] = biological target: PptA, phosin (polyP-targeting protein) from Streptomyces chartreusis (Streptomyces chartreusis); test: SAXS

## PptA, phosin (polyP-targeting protein) from Streptomyces chartreusis (natural protein)
[1]
  stoichiometry N: 2
[2]
  stoichiometry N: 2
